Series [1] concerns T1, PIfXa (KPI A-k1, Kunitz protease inhibitor purified from potato tuber, Solanum tuberosum cv. Kuras; SEQ ID NO:1).
T1 sequence: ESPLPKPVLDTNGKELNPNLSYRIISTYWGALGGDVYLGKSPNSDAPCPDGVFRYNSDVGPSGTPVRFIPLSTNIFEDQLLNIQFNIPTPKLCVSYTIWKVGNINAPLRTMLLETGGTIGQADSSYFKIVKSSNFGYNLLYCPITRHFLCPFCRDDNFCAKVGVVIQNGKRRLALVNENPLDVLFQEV

Series [2] concerns T2, fraction B11SI (cation exchange fraction from potato juice; major inhibitor KPI A-k1, SEQ ID NO:1).
T2 sequence: T1 sequence

Series [3] has as its target T3, factor Xa (fXa).
T3 chain 1: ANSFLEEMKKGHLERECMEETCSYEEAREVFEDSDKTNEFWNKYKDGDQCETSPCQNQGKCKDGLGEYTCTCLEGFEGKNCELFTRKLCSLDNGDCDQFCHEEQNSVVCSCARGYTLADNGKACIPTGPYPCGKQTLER
T3 chain 2: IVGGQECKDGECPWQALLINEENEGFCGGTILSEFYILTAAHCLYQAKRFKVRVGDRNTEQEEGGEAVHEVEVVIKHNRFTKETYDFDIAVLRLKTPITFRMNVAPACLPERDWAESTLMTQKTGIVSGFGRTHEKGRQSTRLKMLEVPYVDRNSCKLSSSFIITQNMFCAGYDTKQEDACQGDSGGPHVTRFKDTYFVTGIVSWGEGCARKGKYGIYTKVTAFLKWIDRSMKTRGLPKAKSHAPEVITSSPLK
Put plainly: amidolytic activity assay: chromozym t-PA hydrolysis by 50 nM fXa, competitive inhibition fit, in the presence of 1 U/mL heparin.

The target in series [4] is T3, factor Xa (fXa). Put plainly: amidolytic activity assay: chromozym t-PA hydrolysis by 50 nM fXa, competitive inhibition fit (GraphPad Prism).

As for factor Xa (fXa), in series [1], the reaction rate of chromozym t-PA hydrolysis by 25 nM fXa with 100 µg/mL PIfXa, no antibody (Ctrl without PIfXa 19.2) was found to be 2 µM/min; the reaction rate of chromozym t-PA hydrolysis by fXa with PIfXa, before addition of antibody (sample PlfXa 1:1) turned out to be 2.1 µM/min; the reaction rate of chromozym t-PA hydrolysis by fXa with PIfXa, before addition of antibody (sample PlfXa 1:2.5) turned out to be 2.1 µM/min; the reaction rate of chromozym t-PA hydrolysis by fXa with PIfXa, before addition of antibody (sample PlfXa 1:5) worked out at 2.2 µM/min. The reaction rate of chromozym t-PA hydrolysis by fXa with PIfXa, before addition of antibody (sample PlfXa 1:10) in series [1] was 1.4 µM/min. In series [2], the KM of chromozym t-PA hydrolysis by fXa with B11SI (fXa alone 0.23) stood at 1250 µM; the KM of chromozym t-PA hydrolysis by fXa with B11SI and heparin was found to be 1180 µM; the Vmax of chromozym t-PA hydrolysis by fXa with B11SI (fXa alone 8.8 · 10^-2) is 0.026 mM/min; the Vmax of chromozym t-PA hydrolysis by fXa with B11SI and heparin was determined as 0.023 mM/min.

B1: fraction B11SI (cation exchange fraction from potato juice; major inhibitor KPI A-k1, SEQ ID NO:1) (other)
chain: T1 sequence
notes: A chromatography fraction, not a pure protein; By nESI the highest peak is 20,830 Da (KPI A-k1 N-terminal variant 3), with further peaks for variants 4, 2 and 1; also called B1151
What is called Ki is the dissociation constant of the complex between target and ligand, obtained from inhibition or displacement. With B1, the values for the Ki in the series with factor Xa (fXa) [3] and with factor Xa (fXa) [4] were 101 nM and 114 nM, respectively.

Source of the values: patent publication US20110027337A1 (IFXA A S, published 2011).
